Data from the supplement of paper PMC11780869.

Test system: Bacillus subtilis
Assay: cleaved RNA product abundance (RNA/gDNA barcode ratio) relative to median wild-type variant (ratio to wild type); higher = more accumulation of the downstream cleavage product
Conditions: cleavage site: cggR-gapA (positions -7 to +36 mutated)
Procedure, shortened: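 Reporter mRNAs (truncated aprE or tetM) carrying barcoded, mutagenized RNase Y cleavage-site windows were made from oligos with a 9% error rate and integrated into the B. subtilis chromosome. Cultures grew in LB at 37°C from OD600 0.0003 to 0.3. Cleaved RNA was gel-selected, reverse transcribed and barcode-sequenced alongside genomic DNA barcodes, with UMI collapsing. Cleaved product abundance is the RNA:gDNA barcode ratio per variant, scaled to the median wild-type variant.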

[1] = experiment (reporter, strain, medium): exp 4a: truncated aprE reporter, strain BJT201 with 2% xylose (RNase J1 expressed)
[2] = experiment (reporter, strain, medium): exp 2b: truncated aprE reporter, strain BJT200
[3] = experiment (reporter, strain, medium): exp 6: tetM reporter, strain 168

Sequence: ACAGACGAAGGAGCCGCAGAGAAGTTATAAAGGGATGAATAATCCCTCAATATAAATATCTCTCACTTATTTAAA
- cleaved RNA product abundance [1]: 0.295

Sequence: ACAGACGAAGGAGCCGCAGAGAAGTTATCAAGGGATGAATAATCCCTCAATATAAATATCTCTCACTTATTTAAA
- cleaved RNA product abundance [1]: 0.328

Sequence: ACAGACGAAGGAGCCGCAGAGAAGTTATTAAAGGATGAATAATCCCTCAATATAAATATCTCTCACTTATTTAAA
- cleaved RNA product abundance [2]: 0.128
- cleaved RNA product abundance [1]: 0.227

Sequence: ACAGACGAAGGAGCCGCAGAGAAGTTATTAAGAGATGAATAATCCCTCAATATAAATATCTCTCACTTATTTAAA
- cleaved RNA product abundance [2]: 0.0994
- cleaved RNA product abundance [1]: 0.118

Sequence: ACAGACGAAGGAGCCGCAGAGAAGTTATTAAGCGATGAATAATCCCTCAATATAAATATCTCTCACTTATTTAAA
- cleaved RNA product abundance [1]: 0.171

Sequence: ACAGACGAAGGAGCCGCAGAGAAGTTATTAAGGAATGAATAATCCCTCAATATAAATATCTCTCACTTATTTAAA
- cleaved RNA product abundance [1]: 0.143

Sequence: ACAGACGAAGGAGCCGCAGAGAAGTTATTAAGGGATGAATAATCCATCAATATAAATATCTCTCACTTATTTAAA
- cleaved RNA product abundance [1]: 0.178

Sequence: ACAGACGAAGGAGCCGCAGAGAAGTTATTAAGGGATGAATAATCCCACAATATAAATATCTCTCACTTATTTAAA
- cleaved RNA product abundance [1]: 0.235

Sequence: ACAGACGAAGGAGCCGCAGAGAAGTTATTAAGGGATGAATAATCCCTAAATATAAATATCTCTCACTTATTTAAA
- cleaved RNA product abundance [1]: 0.755

Sequence: ACAGACGAAGGAGCCGCAGAGAAGTTATTAAGGGATGAATAATCCCTCAATATAAATAACTCTCACTTATTTAAA
- cleaved RNA product abundance [2]: 0.518
- cleaved RNA product abundance [1]: 0.451

Sequence: ACAGACGAAGGAGCCGCAGAGAAGTTATTAAGGGATGAATAATCCCTCAATATAAATATCTCTCACTTATTTAAA
- cleaved RNA product abundance [2]: 0.839
- cleaved RNA product abundance [1]: 0.799
- cleaved RNA product abundance [3]: 0.208

Sequence: ACAGACGAAGGAGCCGCAGAGAAGTTATTAAGGGATGAATAATCCCTCAGTATAAATATCTCTCACTTATTTAAA
- cleaved RNA product abundance [1]: 0.337

Sequence: ACAGACGAAGGAGCCGCAGAGAAGTTATTAAGGGATGAATAATCCGTCAATATAAATATCTCTCACTTATTTAAA
- cleaved RNA product abundance [1]: 0.294

Sequence: ACAGACGAAGGAGCCGCAGAGAAGTTATTAAGGGATGATTAATCCCTCAATATAAATATCTCTCACTTATTTAAA
- cleaved RNA product abundance [2]: 0.638

Sequence: ACAGACGAAGGAGCCGCAGAGAAGTTATTAAGGGATTAATAATCCCTCAATATAAATATCTCTCACTTATTTAAA
- cleaved RNA product abundance [1]: 0.696

Sequence: ACAGACGAAGGAGCCGCAGAGAAGTTATTAAGGGCTGAATAATCCCTCAATATAAATATCTCTCACTTATTTAAA
- cleaved RNA product abundance [1]: 0.694

Sequence: ACAGACGAAGGAGCCGCAGAGAAGTTATTAAGGTATGAATAATCCCTCAATATAAATATCTCTCACTTATTTAAA
- cleaved RNA product abundance [1]: 0.137

Sequence: ACAGACGAAGGAGCCGCAGAGAAGTTATTAAGTGATGAATAATCCCTCAATATAAATATCTCTCACTTATTTAAA
- cleaved RNA product abundance [1]: 0.161

Sequence: ACAGACGAAGGAGCCGCAGAGAAGTTATTAATGGATGAATAATCCCTCAATATAAATATCTCTCACTTATTTAAA
- cleaved RNA product abundance [1]: 0.184

Sequence: ACAGACGAAGGAGCCGCAGAGAAGTTTTTAAGGGATGAATAATCCCTCAATATAAATATCTCTCACTTATTTAAA
- cleaved RNA product abundance [1]: 0.37

Sequence: ACAGACGAAGGAGCCGCAGATAAGTTATTAAGGGATGAATAATCCCTCAATATAAATATCTCTCACTTATTTAAA
- cleaved RNA product abundance [1]: 0.636

Sequence: ACAGACGAAGGAGCCGCATAAAAGTTATTAAGGCATGAATAATCCCTCAATATAAATATCTCTCACTTATTTAAA
- cleaved RNA product abundance [1]: 0.0533

Sequence: ACAGACGAAGGAGCCGCATAGAAATTATTAAGGGATGAATAATCCCTCAATATAAATATCTCTCACTTATTTAAA
- cleaved RNA product abundance [2]: 0.834
- cleaved RNA product abundance [1]: 0.574

Sequence: ACAGACGAAGGAGCCGCATAGAACTTATTAAGGGATGAATAATCCCTCAATATAAATATCTCTCACTTATTTAAA
- cleaved RNA product abundance [2]: 0.341
- cleaved RNA product abundance [1]: 0.499

Sequence: ACAGACGAAGGAGCCGCATAGAAGTAATTAAGGGATGAATAATCCCTCAATATAAATATCTCTCACTTATTTAAA
- cleaved RNA product abundance [1]: 0.356

Sequence: ACAGACGAAGGAGCCGCATAGAAGTTAATAAGGGATGAATAATCCCTCAATATAAATATCTCTCACTTATTTAAA
- cleaved RNA product abundance [2]: 0.239
- cleaved RNA product abundance [1]: 0.304

Sequence: ACAGACGAAGGAGCCGCATAGAAGTTACTAAGGGATGAATAATCCCTCAATATAAATATCTCTCACTTATTTAAA
- cleaved RNA product abundance [2]: 0.24
- cleaved RNA product abundance [1]: 0.221

Sequence: ACAGACGAAGGAGCCGCATAGAAGTTATAAAGGGATGAATAATCCCTCAATATAAATATCTCTCACTTATTTAAA
- cleaved RNA product abundance [1]: 0.339

Sequence: ACAGACGAAGGAGCCGCATAGAAGTTATCAAGGGATGAATAATCCCTCAATATAAATATCTCTCACTTATTTAAA
- cleaved RNA product abundance [1]: 0.549

Sequence: ACAGACGAAGGAGCCGCATAGAAGTTATTAAAGGATGAATAATCCCTCAATATAAATATCTCTCACTTATTTAAA
- cleaved RNA product abundance [1]: 0.199

Sequence: ACAGACGAAGGAGCCGCATAGAAGTTATTAACGGATGAATAATCCCTCAATATAAATATCTCTCACTTATTTAAA
- cleaved RNA product abundance [1]: 0.193

Sequence: ACAGACGAAGGAGCCGCATAGAAGTTATTAAGAGATGAATAATCCCTCAATATAAATATCTCTCACTTATTTAAA
- cleaved RNA product abundance [1]: 0.154

Sequence: ACAGACGAAGGAGCCGCATAGAAGTTATTAAGCGATGAATAATCCCTCAATATAAATATCTCTCACTTATTTAAA
- cleaved RNA product abundance [1]: 0.122

Sequence: ACAGACGAAGGAGCCGCATAGAAGTTATTAAGGAATGAATAATCCCTCAATATAAATATCTCTCACTTATTTAAA
- cleaved RNA product abundance [2]: 0.082
- cleaved RNA product abundance [1]: 0.135

Sequence: ACAGACGAAGGAGCCGCATAGAAGTTATTAAGGAATGAATAATTCCTCAATATAAATATCTCTCACTTATTTAAA
- cleaved RNA product abundance [1]: 0.893

Sequence: ACAGACGAAGGAGCCGCATAGAAGTTATTAAGGAATGAATATTCCCTCAATATAAATATCTCTCACTTATTTAAA
- cleaved RNA product abundance [1]: 0.263

Sequence: ACAGACGAAGGAGCCGCATAGAAGTTATTAAGGCATGAATAAGCCCTCAATATAAATATCTCTCACTTATTTAAA
- cleaved RNA product abundance [1]: 0.143

Sequence: ACAGACGAAGGAGCCGCATAGAAGTTATTAAGGCATGAATAATCCCTCAATATAAATATCTCTCACTTATTTAAA
- cleaved RNA product abundance [2]: 0.0988
- cleaved RNA product abundance [1]: 0.13

Sequence: ACAGACGAAGGAGCCGCATAGAAGTTATTAAGGGAAGAATAATCCCTCAATATAAATATCTCTCACTTATTTAAA
- cleaved RNA product abundance [1]: 0.6

Sequence: ACAGACGAAGGAGCCGCATAGAAGTTATTAAGGGATAAATAATCCCTCAATATAAATATCTCTCACTTATTTAAA
- cleaved RNA product abundance [2]: 1.03
- cleaved RNA product abundance [1]: 0.861

Sequence: ACAGACGAAGGAGCCGCATAGAAGTTATTAAGGGATCAATAATCCCTCAATATAAATATCTCTCACTTATTTAAA
- cleaved RNA product abundance [1]: 1.04

Sequence: ACAGACGAAGGAGCCGCATAGAAGTTATTAAGGGATGAAGAATCCCTCAATATAAATATCTCTCACTTATTTAAA
- cleaved RNA product abundance [1]: 0.861

Sequence: ACAGACGAAGGAGCCGCATAGAAGTTATTAAGGGATGAATAAACCCTCAATATAAATATCTCTCACTTATTTAAA
- cleaved RNA product abundance [2]: 0.448
- cleaved RNA product abundance [1]: 0.471

Sequence: ACAGACGAAGGAGCCGCATAGAAGTTATTAAGGGATGAATAACCCCTCAATATAAATATCTCTCACTTATTTAAA
- cleaved RNA product abundance [2]: 0.457

Sequence: ACAGACGAAGGAGCCGCATAGAAGTTATTAAGGGATGAATAAGCCCTCAATATAAATATCTCTCACTTATTTAAA
- cleaved RNA product abundance [1]: 0.32

Sequence: ACAGACGAAGGAGCCGCATAGAAGTTATTAAGGGATGAATAATACCTCAATATAAATATCTCTCACTTATTTAAA
- cleaved RNA product abundance [2]: 0.115
- cleaved RNA product abundance [1]: 0.179

Sequence: ACAGACGAAGGAGCCGCATAGAAGTTATTAAGGGATGAATAATCACTCAATATAAATATCTCTCACTTATTTAAA
- cleaved RNA product abundance [2]: 0.134
- cleaved RNA product abundance [1]: 0.166

Sequence: ACAGACGAAGGAGCCGCATAGAAGTTATTAAGGGATGAATAATCCATCAATATAAATATCTCTCACTTATTTAAA
- cleaved RNA product abundance [2]: 0.112
- cleaved RNA product abundance [1]: 0.245

Sequence: ACAGACGAAGGAGCCGCATAGAAGTTATTAAGGGATGAATAATCCCACAATATAAATATCTCTCACTTATTTAAA
- cleaved RNA product abundance [1]: 0.292

Sequence: ACAGACGAAGGAGCCGCATAGAAGTTATTAAGGGATGAATAATCCCCCAATATAAATATCTCTCACTTATTTAAA
- cleaved RNA product abundance [2]: 0.247
- cleaved RNA product abundance [1]: 0.319

Sequence: ACAGACGAAGGAGCCGCATAGAAGTTATTAAGGGATGAATAATCCCTAAATATAAATATCTCTCACTTATTTAAA
- cleaved RNA product abundance [1]: 0.658

Sequence: ACAGACGAAGGAGCCGCATAGAAGTTATTAAGGGATGAATAATCCCTCAACATAAATATCTCTCACTTATTTAAA
- cleaved RNA product abundance [1]: 0.317

Sequence: ACAGACGAAGGAGCCGCATAGAAGTTATTAAGGGATGAATAATCCCTCAATAGAAATATCTCTCACTTATTTAAA
- cleaved RNA product abundance [1]: 0.149

Sequence: ACAGACGAAGGAGCCGCATAGAAGTTATTAAGGGATGAATAATCCCTCAATATAAACATCTCTCACTTATTTAAA
- cleaved RNA product abundance [1]: 1

Sequence: ACAGACGAAGGAGCCGCATAGAAGTTATTAAGGGATGAATAATCCCTCAATATAAATATCTCTCACTTATTTAAA
- cleaved RNA product abundance [2]: 1
- cleaved RNA product abundance [1]: 1.01
- cleaved RNA product abundance [3]: 1.06

Sequence: ACAGACGAAGGAGCCGCATAGAAGTTATTAAGGGATGAATAATCCCTCAATATAAATTTCTCTCACTTATTTAAA
- cleaved RNA product abundance [1]: 0.644

Sequence: ACAGACGAAGGAGCCGCATAGAAGTTATTAAGGGATGAATAATCCCTCAATATTAATATCTCTCACTTATTTAAA
- cleaved RNA product abundance [1]: 0.121

Sequence: ACAGACGAAGGAGCCGCATAGAAGTTATTAAGGGATGAATAATCCCTCAATTTAAATATCTCTCACTTATTTAAA
- cleaved RNA product abundance [2]: 0.195

Sequence: ACAGACGAAGGAGCCGCATAGAAGTTATTAAGGGATGAATAATCCCTCACTATAAATATCTCTCACTTATTTAAA
- cleaved RNA product abundance [1]: 0.24

Sequence: ACAGACGAAGGAGCCGCATAGAAGTTATTAAGGGATGAATAATCCCTCATTATAAATATCTCTCACTTATTTAAA
- cleaved RNA product abundance [1]: 0.41

Sequence: ACAGACGAAGGAGCCGCATAGAAGTTATTAAGGGATGAATAATCCCTCCATATAAATATCTCTCACTTATTTAAA
- cleaved RNA product abundance [1]: 0.24
